Measured values: doi:10.1101/2022.09.15.508097 (bioRxiv, 2022)

T1: TetR-EYFP-ZNF518B^878–987 (human, UniProt Q9C0D4 878-987)
T1 sequence: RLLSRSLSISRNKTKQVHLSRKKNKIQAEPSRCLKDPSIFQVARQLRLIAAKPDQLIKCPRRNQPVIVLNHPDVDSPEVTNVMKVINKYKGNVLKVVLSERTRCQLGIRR

T2: TetR-EYFP-ZNF518B^344–1074 (human, UniProt Q9C0D4 344-1074)
T2 sequence: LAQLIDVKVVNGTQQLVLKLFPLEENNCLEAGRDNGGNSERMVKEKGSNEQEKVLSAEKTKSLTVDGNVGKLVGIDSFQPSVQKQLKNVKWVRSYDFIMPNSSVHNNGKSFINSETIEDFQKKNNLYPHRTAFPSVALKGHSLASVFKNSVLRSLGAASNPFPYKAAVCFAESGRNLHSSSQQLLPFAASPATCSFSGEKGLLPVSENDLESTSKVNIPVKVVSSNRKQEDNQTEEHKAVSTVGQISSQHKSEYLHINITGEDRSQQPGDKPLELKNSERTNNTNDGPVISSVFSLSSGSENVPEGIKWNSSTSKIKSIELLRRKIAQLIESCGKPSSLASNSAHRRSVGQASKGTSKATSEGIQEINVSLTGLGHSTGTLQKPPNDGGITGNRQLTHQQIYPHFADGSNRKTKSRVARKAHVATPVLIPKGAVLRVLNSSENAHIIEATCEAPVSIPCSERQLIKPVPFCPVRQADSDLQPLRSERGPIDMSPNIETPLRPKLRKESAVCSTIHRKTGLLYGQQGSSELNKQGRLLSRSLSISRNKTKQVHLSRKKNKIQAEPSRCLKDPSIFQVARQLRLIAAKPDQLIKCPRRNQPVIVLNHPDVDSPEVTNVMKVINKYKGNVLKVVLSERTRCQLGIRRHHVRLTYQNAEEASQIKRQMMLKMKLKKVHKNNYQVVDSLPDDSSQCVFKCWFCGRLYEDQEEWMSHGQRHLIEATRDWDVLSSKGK

T3: TetR-EYFP-ZNF518B^770–987 (human, UniProt Q9C0D4 770-987)
T3 sequence: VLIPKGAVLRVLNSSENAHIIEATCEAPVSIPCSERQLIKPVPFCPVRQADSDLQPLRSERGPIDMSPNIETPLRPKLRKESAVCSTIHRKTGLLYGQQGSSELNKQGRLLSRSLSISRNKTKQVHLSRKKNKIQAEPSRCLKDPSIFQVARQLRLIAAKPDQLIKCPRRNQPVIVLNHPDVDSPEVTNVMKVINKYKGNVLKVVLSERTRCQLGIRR

T4: TetR-EYFP-ZNF518B^555–1074 (human, UniProt Q9C0D4 555-1074)
T4 sequence: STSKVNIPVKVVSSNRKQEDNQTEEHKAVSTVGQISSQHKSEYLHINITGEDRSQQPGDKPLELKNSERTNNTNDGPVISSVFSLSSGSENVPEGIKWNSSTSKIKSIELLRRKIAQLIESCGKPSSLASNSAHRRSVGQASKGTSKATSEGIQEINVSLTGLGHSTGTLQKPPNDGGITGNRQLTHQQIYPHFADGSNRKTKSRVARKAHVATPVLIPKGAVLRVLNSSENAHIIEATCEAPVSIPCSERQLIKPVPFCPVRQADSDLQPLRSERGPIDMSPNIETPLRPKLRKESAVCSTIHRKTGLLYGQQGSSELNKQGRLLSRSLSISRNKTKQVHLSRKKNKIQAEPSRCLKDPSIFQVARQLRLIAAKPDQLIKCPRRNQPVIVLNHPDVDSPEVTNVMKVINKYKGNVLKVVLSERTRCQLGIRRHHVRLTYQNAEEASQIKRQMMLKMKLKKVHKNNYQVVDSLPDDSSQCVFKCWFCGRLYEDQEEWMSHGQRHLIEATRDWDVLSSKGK

T5: TetR-EYFP-ZNF518B^344–987 (human, UniProt Q9C0D4 344-987)
T5 sequence: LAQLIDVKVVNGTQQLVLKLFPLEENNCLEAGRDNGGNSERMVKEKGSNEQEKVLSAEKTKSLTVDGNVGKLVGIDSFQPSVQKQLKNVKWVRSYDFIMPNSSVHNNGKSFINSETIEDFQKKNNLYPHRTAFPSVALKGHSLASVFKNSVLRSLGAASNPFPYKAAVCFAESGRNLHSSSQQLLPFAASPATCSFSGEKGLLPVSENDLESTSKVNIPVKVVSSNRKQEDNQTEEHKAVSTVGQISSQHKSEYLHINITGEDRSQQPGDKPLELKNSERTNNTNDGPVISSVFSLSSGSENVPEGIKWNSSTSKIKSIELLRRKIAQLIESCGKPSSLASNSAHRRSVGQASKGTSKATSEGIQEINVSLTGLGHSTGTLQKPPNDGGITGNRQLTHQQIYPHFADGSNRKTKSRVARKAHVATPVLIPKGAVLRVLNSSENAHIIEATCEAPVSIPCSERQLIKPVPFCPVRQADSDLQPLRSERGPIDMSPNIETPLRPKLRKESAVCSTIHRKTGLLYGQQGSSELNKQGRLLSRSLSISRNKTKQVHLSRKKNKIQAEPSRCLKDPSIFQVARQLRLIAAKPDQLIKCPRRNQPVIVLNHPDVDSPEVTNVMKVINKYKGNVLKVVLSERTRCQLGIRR

T6: TetR-EYFP-ZNF518B^878–1074 (human, UniProt Q9C0D4 878-1074)
T6 sequence: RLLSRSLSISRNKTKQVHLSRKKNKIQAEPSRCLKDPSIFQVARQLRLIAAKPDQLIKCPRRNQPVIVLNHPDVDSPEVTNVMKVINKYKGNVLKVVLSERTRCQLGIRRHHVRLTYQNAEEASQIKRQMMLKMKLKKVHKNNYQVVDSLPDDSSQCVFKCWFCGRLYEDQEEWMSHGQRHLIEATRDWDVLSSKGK

T7: HAT-MBP-ZNF518B^770–987 (human, UniProt Q9C0D4 770-987)
T7 sequence: T3 sequence

T8: TetR-EYFP-ZNF518B^WT (human, UniProt Q9C0D4 1-1074)
T8 sequence: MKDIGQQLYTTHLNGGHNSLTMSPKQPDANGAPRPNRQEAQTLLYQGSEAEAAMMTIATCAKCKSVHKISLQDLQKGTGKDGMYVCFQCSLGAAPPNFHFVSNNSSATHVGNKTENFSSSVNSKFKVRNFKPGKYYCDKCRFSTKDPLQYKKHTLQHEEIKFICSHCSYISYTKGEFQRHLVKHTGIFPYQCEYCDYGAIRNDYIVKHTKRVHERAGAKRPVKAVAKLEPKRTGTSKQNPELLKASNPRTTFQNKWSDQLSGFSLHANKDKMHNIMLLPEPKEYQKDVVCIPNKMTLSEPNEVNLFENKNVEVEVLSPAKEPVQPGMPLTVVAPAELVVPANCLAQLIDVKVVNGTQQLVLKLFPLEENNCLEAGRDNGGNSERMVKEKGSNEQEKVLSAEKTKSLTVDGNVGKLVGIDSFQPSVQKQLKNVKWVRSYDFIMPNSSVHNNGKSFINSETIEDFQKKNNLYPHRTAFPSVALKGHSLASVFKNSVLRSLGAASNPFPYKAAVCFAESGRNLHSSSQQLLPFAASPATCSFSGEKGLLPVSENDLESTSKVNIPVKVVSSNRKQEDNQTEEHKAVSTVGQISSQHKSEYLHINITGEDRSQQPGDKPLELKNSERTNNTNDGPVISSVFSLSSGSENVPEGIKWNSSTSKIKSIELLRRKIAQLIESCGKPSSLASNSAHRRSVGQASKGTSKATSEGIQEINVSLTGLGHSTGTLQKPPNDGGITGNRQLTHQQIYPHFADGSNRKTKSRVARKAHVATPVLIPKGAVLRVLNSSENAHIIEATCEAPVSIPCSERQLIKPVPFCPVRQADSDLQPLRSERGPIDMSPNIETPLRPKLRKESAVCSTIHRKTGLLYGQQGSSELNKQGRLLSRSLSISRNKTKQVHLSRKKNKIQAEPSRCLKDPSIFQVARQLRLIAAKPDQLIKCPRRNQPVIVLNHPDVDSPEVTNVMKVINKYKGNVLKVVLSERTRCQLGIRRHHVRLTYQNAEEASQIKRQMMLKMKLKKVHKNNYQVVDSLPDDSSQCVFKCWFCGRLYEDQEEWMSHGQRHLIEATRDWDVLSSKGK

B1: Halo-HP1γ (natural protein)
chain: not shown
modifications: Halo Tag TMR ligand on the Halo tag
B2: His6-GST-HP1γ (natural protein)
chain: not shown
B3: Halo-HP1β (natural protein)
chain: not shown
modifications: Halo Tag TMR ligand on the Halo tag
B4: His6-GST-HP1β (natural protein)
chain: not shown

Assays:
[1] = target: T1, TetR-EYFP-ZNF518B^878–987; experiment: fluorescence microscopy-based interaction-trap
[2] = target: T2, TetR-EYFP-ZNF518B^344–1074; experiment: fluorescence microscopy-based interaction-trap
[3] = target: T3, TetR-EYFP-ZNF518B^770–987; experiment: fluorescence microscopy-based interaction-trap
[4] = target: T4, TetR-EYFP-ZNF518B^555–1074; experiment: fluorescence microscopy-based interaction-trap
[5] = target: T5, TetR-EYFP-ZNF518B^344–987; experiment: fluorescence microscopy-based interaction-trap
[6] = target: T6, TetR-EYFP-ZNF518B^878–1074; experiment: fluorescence microscopy-based interaction-trap
HAT-MBP-ZNF518B^770–987 = target: T7, HAT-MBP-ZNF518B^770–987; experiment: pull-down
TetR-EYFP-ZNF518B^WT = target: T8, TetR-EYFP-ZNF518B^WT; experiment: fluorescence microscopy-based interaction-trap

Binder | % of cells with recruitment to alphoid^tetO [1] | % of cells with recruitment to alphoid^tetO [2] | % of cells with recruitment to alphoid^tetO [3] | % of cells with recruitment to alphoid^tetO [4] | % of cells with recruitment to alphoid^tetO [5] | % of cells with recruitment to alphoid^tetO [6] | binding result (HAT-MBP-ZNF518B^770–987) | % of cells with recruitment to alphoid^tetO (TetR-EYFP-ZNF518B^WT)
B1 | > 75% | > 75% | > 75% | > 75% | > 75% | > 75% |  | 
B2 |  |  |  |  |  |  | binds | 
B3 | > 75% | > 75% | > 75% | > 75% | > 75% | > 75% |  | 58%
B4 |  |  |  |  |  |  | binds | 
